Measurements: the nanobody polyreactivity screen of Harvey et al. (2022)

Test: yeast display, Sf9 membrane polyspecificity reagent, FACS + sequencing; frameworks hold sequencing errors
Procedure, shortened: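 Synthetic nanobody libraries on Saccharomyces cerevisiae BJ5465 were galactose-induced for 36–48 hours, stained 1 hour at 4 °C with 10% biotinylated, detergent-solubilized Sf9 membrane reagent and enriched on streptavidin microbeads. FACS then separated cells into low and high (top ~1%) gates by anti-HA (expression) and streptavidin (reagent binding) fluorescence. Genes were colony-PCR amplified, MiSeq 2 × 250 sequenced and CDR-length filtered. A clone's polyreactivity label is that of its gate of origin.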

| Sequence | polyreactivity (PSR sort gate) |
| --- | --- |
| QVQLVESGGGLVQAGVSLRLSCAASGSTFKQYAMGWYRQAPGKERELVAAIDRGGSTYYADSVKGRFTISRDNANNTVYLQMNSLKPEYTAVYYCAARFVQYRYAFDYWGQGTQVTVSS | low polyreactivity |
| QVQLVESGGGLVQAGVSLRLSCDASGSTFHYYVMGSSRQAPGKEREFVAAISRSGGNPYYADSVKGRFTISRDNAKNTVYLQMNSLKPDDTAVYYCAAALSAYVKWDYYYCGQGTQVTVSS | low polyreactivity |
| QVQLVESGGGLVQAGVSLRLSYADSGPIFYKYVMGWYRQAPGKEREMDAAINRSGGTTYYADSVKGRFTISRDKAMNTVYLQMNRLKREDTAVYYCNATLPDYWRYYYYQCGDDYWGQGTQVTVSS | low polyreactivity |
| QVQLVESGGGLVQALGSLRLSCVASGSTYDAYDMGWYREAPGKERELVAAITSGGSTYYADSVKGRFTISRDNAKNTVYLQMNSLKPEDTAVYYCAASNQWSSTYLTYGFYYWGQGTQVTVSS | low polyreactivity |
| QVQLVESGGGLVQARGSLRLSCAASGFIFLYNAMGWYRQAPGKERELLAAITSSGGTTYYADSVKGRFTISRDNAKNTVYLQMNSLKPEDTAVYYCAARYTGRNGGSNTPEYDYWVQGTQVTVSS | low polyreactivity |
| QVQLVESGGGLVQARGSLRLSCAASGFIFRDNAMGWYRQAPGKERELVAAISKSGGRTYYADSVKGRFTISRDNAKNTVYLQMNSLKPEDTAVYYCAKASRYWSLYYWGQGTQVTVSS | high polyreactivity |
| QVQLVESGGGLVQARGSLRLSCAASGFNFRSYAMASYRQAPGKERELVAAINSRAGNTYYADSVKGRFTISRDNSKNTVYLQMNSLKPEDTAVYYCNAVRHTYGYYSCGQGTQVTVSS | high polyreactivity |
| QVQLVESGGGLVQARGSLRLSCAASGFTFPQYAMAWYRQAPGKERELVAVISWSGSSTYYADSVKGRFTISRDNAKNTVYLQMNSLKPEDTAVDYCNTRKLYQVDYDYWGQGTQVTVSS | high polyreactivity |
| QVQLVESGGGLVQARGSLRLSCAASGITFYFNAMGWYRQAPGKERELVAVITSGGSTNYADSVKGRFTISRDNAKNTVYLQMISLKPEDTAVYYCATDKSYSSWSAQYDYWRQGTQVTVSS | low polyreactivity |
| QVQLVESGGGLVQARGSLRLSCAASGLTFTVDAMGWYRQAPGKEREFVAAISYSAGRTYYADSVKGRFTISRDNAKNTVYLQMNSLKPADTAVYYCAAATYYSIYDYWGQGTQVTVSS | high polyreactivity |
| QVQLVESGGGLVQARGSLRLSCAASGNTFVRNVMGWYRKAPGKERELFAAITWRSVRTDYADSVKGRFTISLDNAKNTVNLQMNSLKPEDTAVYNCAAPSASRHGEYDYWGQGTQVTVSS | low polyreactivity |
| QVQLVESGGGLVQARGSLRLSCAASGRIFKRYTMGWYTQAPGKKRELVATISSGDSTTYADSVKGRFTISRDNAKNTVYLQMNSLKQEDTAVYYCAAVWPGGSRRGDVVALNYWGQGTQVTVSS | high polyreactivity |
| QVQLVESGGGLVQARGSLRLSCAASGRILYSYAMGWYRQAPGKERELVASISLSGGRTYADSVKGRFTISRDNAKNTVYLQMNSLKPEDTAVYYCNDRIRTSRYLWPFDYWGQGTQVTVSS | high polyreactivity |
| QVQLVESGGGLVQARGSLRLSCAASGRNFPSNAMGWYRQAPGKERELVPVITRGSRTKYADCVKGRFTISRDKAMNTVYLQMNSLKPEDSAVYYCAALGGLLYTQGHSEAYWGQGTQGTVSS | low polyreactivity |
| QVQLVESGGGLVQARGSLRLSCAASGRTFKRYAMGWYRQAPGKERELVAAIAWSGTSTYYADSVKGRLTISRDNAKNTVYLQMNSLIPEDTAVYYCNTPHRSSSVRSYGYWGQGTQVSVSS | high polyreactivity |
| QVQLVESGGGLVQARGSLRLSCAASGSIFAYNAMGWYRQAPGKERELVARISNRSGRTYYADSVKGRFTISRDNAKNTVYLLMNSLKPEDTAVYYCGVVAGLGTYRRYGYCGQGTQVTVSS | high polyreactivity |
| QVQLVESGGGLVQARGSLRLSCAASGSIFINNTRGWYRQAPGIEREWVAAISITGGSTYYADSVKGRFTISRDNAKNSVYLQMNSLKPEDTAVDYCAADPLQLYDYNYWGQGTQVTVSS | low polyreactivity |
| QVQLVESGGGLVQARGSLRLSCAASGSIFYGNTMGWYRQAPGKESEFVAAISYGGGGTYYADSVKGRFTISRDNAKNTVYLQMNILKPEDTAVYYCATDDPLYQINEQGMDYWGLGTQVTVSS | low polyreactivity |
| QVQLVESGGGLVQARGSLRLSCAASGSTFHQYVMGWYRQAPGKESELVAAINSSGSSTYYADSVKGRFTISRDNAKNTVDLQMNSLKPEDTAVYYCARDGLRNPGGYGFWGQGTQVTVSS | low polyreactivity |
| QVQLVESGGGLVQARGSLRLSCAASGSTFPYVMGWYRQAPWKERELVAAISQRTGSTYYADSVKGRFTISRDNAKNTVYLQMNSLNPEDTAVYYCAKPGYLRPSRYDYWGQGTQVTVSS | high polyreactivity |
| QVQLVESGGGLVQARGSLRLSCAASGSTFRFNAMGRYRQAPGKEREFVAAIRFTGGSTYYADSVKGRFTISRDYAKNTVYLQMNSLKPEDTAVYYCNNADEYSNVEYDYWGQGTQVTVSS | low polyreactivity |

| Sequence | polyreactivity (PSR sort gate) |
| --- | --- |
| QVQLVESGGGLVQARGSLRLSCAASGSTFYYNTMGWYRQAPGKERELVAAITSSGGRTYYADSVKGRFTISRDNAKNTVYLQMNSLKPEDTAVYYCAAKRVGSTANRRVTKYDWGQGTQVTVSS | high polyreactivity |
| QVQLVESGGGLVQARGSLRLSCAASGTIFASNAMGWLRKAPGKVRELVAAINSGGNTYADSVKGRFTITRDNAKNTVYVHMNSLKPEDTAVYYCAVVWNWCSGLSPGYPEFDYWGQGTQVTVSA | low polyreactivity |
| QVQLVESGGGLVQARGSLRLSCAASVGTFGSNNMGCYRQAPGKDRELVAAITSGVSTNYADSVKGRFTITRYIAKNTVYLQMNSLKPEDTAVNYSAAGTQAHAYVVRPIEMDYWGQGTQVTVSS | low polyreactivity |
| QVQLVESGGGLVQARGSLRLSCAASVRTICNNAMGWYREAPGKERELVAANTSTASRTYYADSEKGRFTISRDNAKNTVYLQMNSLKPEDTAVYYCNRVSHLDYYWGQGTQVTVSS | high polyreactivity |
| QVQLVESGGGLVQARGSLRLSCASSGITLYFNTMGCYRQPPGKESELVASISGGSSTYYADSVKGRFTISRDNAKNTVYLQMNSLKPEDTAVYYCNAQGSLFRGWFDYDYWGLGTQVTVSS | low polyreactivity |
| QVQLVESGGGLVQARGSLRLSCASSGSTFGGYAMGWYRQAPGKERELVPAITRSGGSTYYADSVKGRFTISRDNGKNTVYLQMNSLKPEDTAVYYCAARVPRGDRPGYHYAYYYWGQGTQVTVSS | high polyreactivity |
| QVQLVESGGGLVQASGSLRLSCAASGFTFSQYDMGWNRQDHGKERELVAAISWNGGSTYYAESVKGRFTISRDNAKNTVYLQMNSLKPDDTAVYYCNRRWPFVRFYYWGQGTQVTVSS | high polyreactivity |
| QVQLVESGGGLVQAVCSLRLSCAASGRTFHGNAMGWYRQAPGKERELVAAISYSGGRTYYADSVKGRFTISRDNAKNTVYLQMNSLKPEDTAVYYCAAWGSSYSFDYWGQGTQVTVSS | high polyreactivity |
| QVQLVESGGGLVQAVGGLRLSCAASGSTFKRNTMGSYRQAPGKEMELVAAISRSGGSTYYADSVKGRFTISRDNAKNTVYLQMNSLKPEDTAVYYCNAYVSSYVGSRSYGLSPYDYWGQGTQVTVSS | high polyreactivity |
| QVQLVESGGGLVQAVGRLRLSCAASGSNFQYYAMGWYRQAPGKERELVAAISSSGTGTSYADSVKGRFTISRDNAKNTVYLQMNSLKPEDTGVYYCAADYRDYPDSAYYYWGQGTQVTVSS | low polyreactivity |
| QVQLVESGGGLVQAVGSLRLSCAASGLIFWRNAMGWYRQAPGKERELVAAITYSGSRTYYADSVKGRFTISRDNAKNTVYLQMNSLKPEDTAVYYCNADYYWYPYEDDDWGQGTQVTVSS | low polyreactivity |
| QVQLVESGGGLVQAVGSLRLSCAASGLTFYSNAMGWYRQAPGTERELVATISQDGGRTYADSVKGLFTISRDNAKNTVYFQMNSLKPEDTAVYYCAADYSGNYDFGYWGQGNQVTVSS | low polyreactivity |
| QVQLVESGGGLVQAVGSLRLSCAASGRTFGNYAMGWYRQAPGKERELVAAISRSGASTYYADSVKGRFTISRDNAKNSVYLQMNSLKPEDTAVYYCAARVLKPFKYGYWGQGTQVTVSS | high polyreactivity |
| QVQLVESGGGLVQAVGSLRLSCAASGRTFNSYTMGWYRQAPGKERELVAAISSGGSTTYADSVKGRFTISRDNAKNTVYLQMNSLKPEDTAVYYCAAGLVYRGYRRDYWGQGTQVTVSS | low polyreactivity |
| QVQLVESGGGLVQAVGSLRLSCAASGRTFYRYAMGWYRQAPGKERELVASITRRGGNTYYADSVKGRFTISRDNAKNTVYLQMNSLKPEDTAVYYCAAQSLHPGNWGQGTQVTVSS | high polyreactivity |
| QVQLVESGGGLVQAVGSLRLSCAASGSTLSANAMGWYRQAPGKEWELVAAISWNGGCTYYADSVKGRFTISRDNAKNTVYLQMNSLKPEDTAVYYCAAEYIVTYEYWYFGYDYWGQGTQVTVSS | low polyreactivity |
| QVQLVESGGGLVQAVGSLRLSCAASGSTLYRYALGWYRQAPGKARELDAAISSSGGSTYYADSVKGRFTISRDNAKNTVYLQMNSLKPEDTEVYYCARVARASGVRWYYYWGQGTQVTVSS | high polyreactivity |
| QVQLVESGGGLVQAVGSLRLSCAASVFIFPYYDMGWYRQAPGKEREFVAAITKSGGRTYYADSVKGRFTISRDNAKNTVYLHMNSLKPEDTAVYYCNADDPDYLVSYRYDYWGLGTQVTVSS | low polyreactivity |
| QVQLVESGGGLVQAVGSLRLSCASSGYTFDYYTMGWYRQAPGKERELVARITASGGSTYYADSVKGRFTISRDNAKNTVYLQMNSLKPEDTAVYYCAKAWYRYSRFDYWGQGTQVTVSS | high polyreactivity |
| QVQLVESGGGLVQAVGTLRLSCAASGSIFGYNAMGWYRHAPAKEREFVAAIRWSSGSTYYADSVKGRFTISRDNAMNTVFLQMNSLKPEDTAVNYCATRQTYLYWGQGTQVTVSS | high polyreactivity |
